In paper PMC5875921:

What was measured:
[1] = target: HNH domain of NmeCas9 (Neisseria meningitidis) (UniProt C9X1G5); assay: ITC
[2] = tested on: NmeCas9 (Neisseria meningitidis); assay: fluorescence polarization; details: not given in the material (Methods absent)

Kd [1] [nM] | Substance | Kd [2] [nM]
6.3 | AcrIIC1 from Neisseria meningitidis (natural protein) | –
– | NmeCas9 sgRNA + target DNA | 71
